Results as given in patent publication US20090297501A1 (Chugai, published 2009).
Read-outs that look alike come from different tables or passages of the source.

T1: human Mpl (human, UniProt P40238 26-635)
T1 sequence (looked up): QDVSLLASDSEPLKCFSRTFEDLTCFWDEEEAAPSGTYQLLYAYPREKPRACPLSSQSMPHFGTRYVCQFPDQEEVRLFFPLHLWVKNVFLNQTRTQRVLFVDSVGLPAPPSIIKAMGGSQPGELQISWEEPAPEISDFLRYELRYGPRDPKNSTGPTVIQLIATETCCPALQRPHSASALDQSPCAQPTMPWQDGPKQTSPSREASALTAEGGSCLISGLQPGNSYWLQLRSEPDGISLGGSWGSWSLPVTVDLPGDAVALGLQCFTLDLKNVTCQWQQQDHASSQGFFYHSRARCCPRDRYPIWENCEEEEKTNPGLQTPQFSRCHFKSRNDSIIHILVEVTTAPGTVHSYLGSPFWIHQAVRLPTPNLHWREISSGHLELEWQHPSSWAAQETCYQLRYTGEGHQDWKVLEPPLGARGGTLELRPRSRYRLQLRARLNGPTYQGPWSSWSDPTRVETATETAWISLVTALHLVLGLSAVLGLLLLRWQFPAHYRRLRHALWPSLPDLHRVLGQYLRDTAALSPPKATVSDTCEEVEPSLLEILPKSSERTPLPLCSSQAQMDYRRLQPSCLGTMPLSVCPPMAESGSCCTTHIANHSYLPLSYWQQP


Experiments:
human Mpl [1] = target: T1, human Mpl; experiment: cell-based or functional assay
monkey Mpl [2] = target: monkey Mpl (monkey); experiment: cell-based or functional assay
human Mpl [3] = target: T1, human Mpl; experiment: cell-based or functional assay; remark: listed apart in the source
monkey Mpl [4] = target: monkey Mpl (monkey); experiment: cell-based or functional assay; remark: listed apart in the source
[5] = target: T2, fusion protein of GST and MG10 (Gln213 to Ala231 in the amino acid sequence of human Mpl) (human, UniProt P40238 213-231); experiment: Biacore 3000, MG10-GST amine-coupled on CM5, sc(Fv)2 as analyte, bivalent analyte model, n = 3
T2 construct: the parts follow the printed name MG10-GST; also called MG10-GST fusion protein; not shown: glutathione S-transferase (GST)
Method: The binding activities of hVB22B u2-wz4 sc(Fv)2, and peak 1 and peak 2 separated from hVB22B u2-wz4 sc(Fv)2 were evaluated as described below. Sensor Chip CM5 Biacore) was placed in Biacore 3000 (Biacore), and a fusion protein of MG10 (Gln213 to Ala231 of human Mpl) and GST described in Section 2-1 was immobilized onto the chip by the amine-coupling method. HSS-EP Buffer (Biacore) was used as the running buffer for the measurement. The flow rate was 20 μl/min. Six concentrations of each of humanized VB22B u2-wz4 sc(Fv)2 bulk, peak 1, and peak 2 within about 5 to 150 nM were prepared using HBS-EP Buffer. Each of the samples was injected over the above-described MG10-immobilized cell for 2 minutes to reveal the binding region. Then, the measurement was conducted for 2 minutes to reveal the dissociation region. VB22B sc(Fv)2 bound to the MG10-GST fusion protein was removed by injecting 20 mM HCl for 1 minute to recover the immobilized cell. The association rate constant (ka) and dissociation rate constant (kd) were calculated from the obtained sensorgram using the BIAevaluation Version 3.1 ([…]) software applying the bivalent analyte model.

human Mpl [6] = target: T1, human Mpl; experiment: cell-based or functional assay; remark: listed apart in the source
monkey Mpl [7] = target: monkey Mpl (monkey); experiment: cell-based or functional assay; remark: listed apart in the source
[8] = target: Mpl on the BaF3 cells used in FIG. 33 (human or monkey, not stated); experiment: cell-based or functional assay

Binder | EC50 (read off the curve) (growth of BaF3-human Mpl cells, WST-8) [A] (human Mpl [1]) [nM] | EC50 (read off the curve) (growth of BaF3-monkey Mpl cells, WST-8) [B] (monkey Mpl [2]) [nM] | EC50 (read off the curve) (growth of BaF3-human Mpl cells, WST-8) [A] (human Mpl [3]) [nM] | EC50 (read off the curve) (growth of BaF3-monkey Mpl cells, WST-8) [B] (monkey Mpl [4]) [nM] | Kd [5] [nM] | koff [5] [s⁻¹] | kon [5] [M⁻¹ s⁻¹] | EC50 (read off the curve) (growth of BaF3-human Mpl cells, WST-8) [A] (human Mpl [6]) [nM] | EC50 (read off the curve) (growth of BaF3-monkey Mpl cells, WST-8) [B] (monkey Mpl [7]) [nM] | EC50 (read off the curve) (growth of Mpl-expressing BaF3 cells, WST-8; cell line not stated) [8] [ng/mL]
humanized anti-human Mpl antibody hVB22B u2-wz4 sc(Fv)2 (bulk, before separation of the structural isomers) (scFv, sc(Fv)2, a single chain VH1-linker-VL2-linker-VH3-linker-VL4, not Flag-tagged; also called humanized VB22B u2-wz4 sc(Fv)2 bulk) QVQLVQSGPEVKKPGASVKVSCKASGYTFTNSWMNWVRQRPGKGLEWIGRIYPGDGETIYNGKFRVRVTITADESTSTAYMQLSSLRSEDTAVYYCARGYDDYSFAYWGQGTTVTVSSGGGGSGGGGSGGGGSDIVMTQSPLSLPVTPGEPASISCRSSKSLLHSNGNTYLYWFLQKPGQSPQLLIYRMSNLASGVPDRFSGSGSGTDFTLKISRVEAEDVGVYYCMQHIEYPFTFGQGTKLEIKGGGGSGGGGSGGGGSQVQLVQSGPEVKKPGASVKVSCKASGYTFTNSWMNWVRQRPGKGLEWIGRIYPGDGETIYNGKFRVRVTITADESTSTAYMQLSSLRSEDTAVYYCARGYDDYSFAYWGQGTTVTVSSGGGGSGGGGSGGGGSDIVMTQSPLSLPVTPGEPASISCRSSKSLLHSNGNTYLYWFLQKPGQSPQLLIYRMSNLASGVPDRFSGSGSGTDFTLKISRVEAEDVGVYYCMQHIEYPFTFGQGTKLEIK | ~0.04 | ~0.04 | ~0.06 | ~0.02 | 10.2 | 0.00617 | 608000 | – | – | –
hVB22B u2-wz4 sc(Fv)2 peak 2 (single chain diabody type structural isomer) (scFv, also called purified u2-wz4 peak 2) QVQLVQSGPEVKKPGASVKVSCKASGYTFTNSWMNWVRQRPGKGLEWIGRIYPGDGETIYNGKFRVRVTITADESTSTAYMQLSSLRSEDTAVYYCARGYDDYSFAYWGQGTTVTVSSGGGGSGGGGSGGGGSDIVMTQSPLSLPVTPGEPASISCRSSKSLLHSNGNTYLYWFLQKPGQSPQLLIYRMSNLASGVPDRFSGSGSGTDFTLKISRVEAEDVGVYYCMQHIEYPFTFGQGTKLEIKGGGGSGGGGSGGGGSQVQLVQSGPEVKKPGASVKVSCKASGYTFTNSWMNWVRQRPGKGLEWIGRIYPGDGETIYNGKFRVRVTITADESTSTAYMQLSSLRSEDTAVYYCARGYDDYSFAYWGQGTTVTVSSGGGGSGGGGSGGGGSDIVMTQSPLSLPVTPGEPASISCRSSKSLLHSNGNTYLYWFLQKPGQSPQLLIYRMSNLASGVPDRFSGSGSGTDFTLKISRVEAEDVGVYYCMQHIEYPFTFGQGTKLEIK | ~0.04 | ~0.03 | ~0.05 | ~0.02 | 9.92 | 0.00566 | 571000 | – | – | –
hVB22B u2-wz4 sc(Fv)2 peak 1 (bivalent scFv type structural isomer) (scFv, also called purified u2-wz4 peak 1) QVQLVQSGPEVKKPGASVKVSCKASGYTFTNSWMNWVRQRPGKGLEWIGRIYPGDGETIYNGKFRVRVTITADESTSTAYMQLSSLRSEDTAVYYCARGYDDYSFAYWGQGTTVTVSSGGGGSGGGGSGGGGSDIVMTQSPLSLPVTPGEPASISCRSSKSLLHSNGNTYLYWFLQKPGQSPQLLIYRMSNLASGVPDRFSGSGSGTDFTLKISRVEAEDVGVYYCMQHIEYPFTFGQGTKLEIKGGGGSGGGGSGGGGSQVQLVQSGPEVKKPGASVKVSCKASGYTFTNSWMNWVRQRPGKGLEWIGRIYPGDGETIYNGKFRVRVTITADESTSTAYMQLSSLRSEDTAVYYCARGYDDYSFAYWGQGTTVTVSSGGGGSGGGGSGGGGSDIVMTQSPLSLPVTPGEPASISCRSSKSLLHSNGNTYLYWFLQKPGQSPQLLIYRMSNLASGVPDRFSGSGSGTDFTLKISRVEAEDVGVYYCMQHIEYPFTFGQGTKLEIK | ~0.07 | – | ~0.09 | – | 12.4 | 0.00727 | 586000 | – | – | –
modified hVB22B u2-wz4(v1) sc(Fv)2 (scFv) QVQLVQSGPEVKKPGASVKVSCKASGYTFTNSWMNWVRERPGKGLEWIGRIYPGDGETIYNGKFRVRVTITADESTSTAYMQLSSLRSEDTAVYYCARGYDDYSFAYWGQGTTVTVSSGGGGSGGGGSGGGGSDIVMTQSPLSLPVTPGEPASISCRSSKSLLHSNGNTYLYWFLEKPGQSPQLLIYRMSNLASGVPDRFSGSGSGTDFTLKISRVEAEDVGVYYCMQHIEYPFTFGQGTKLEIKGGGGSGGGGSGGGGSQVQLVQSGPEVKKPGASVKVSCKASGYTFTNSWMNWVRKRPGKGLEWIGRIYPGDGETIYNGKFRVRVTITADESTSTAYMQLSSLRSEDTAVYYCARGYDDYSFAYWGQGTTVTVSSGGGGSGGGGSGGGGSDIVMTQSPLSLPVTPGEPASISCRSSKSLLHSNGNTYLYWFLKKPGQSPQLLIYRMSNLASGVPDRFSGSGSGTDFTLKISRVEAEDVGVYYCMQHIEYPFTFGQGTKLEIK | – | – | ~0.04 | ~0.04 | – | – | – | – | – | –
modified hVB22B u2-wz4(v3) sc(Fv)2 (scFv) QVQLVQSGPEVKKPGASVKVSCKASGYTFTNSWMNWVRERPGKGLEWIGRIYPGDGETIYNGKFRVRVTITADESTSTAYMQLSSLRSEDTAVYYCARGYDDYSFAYWGQGTTVTVSSGGGGSGGGGSGGGGSDIVMTQSPLSLPVTPGEPASISCRSSKSLLHSNGNTYLYWFLKKPGQSPQLLIYRMSNLASGVPDRFSGSGSGTDFTLKISRVEAEDVGVYYCMQHIEYPFTFGQGTKLEIKGGGGSGGGGSGGGGSQVQLVQSGPEVKKPGASVKVSCKASGYTFTNSWMNWVRKRPGKGLEWIGRIYPGDGETIYNGKFRVRVTITADESTSTAYMQLSSLRSEDTAVYYCARGYDDYSFAYWGQGTTVTVSSGGGGSGGGGSGGGGSDIVMTQSPLSLPVTPGEPASISCRSSKSLLHSNGNTYLYWFLEKPGQSPQLLIYRMSNLASGVPDRFSGSGSGTDFTLKISRVEAEDVGVYYCMQHIEYPFTFGQGTKLEIK | – | – | ~0.1 | – | – | – | – | – | – | –
anti-human Mpl antibody VB22B sc(Fv)2 peak 2 (single chain diabody type structural isomer) (scFv) QVQLQQSGPELVKPGASVKISCKASGYAFTNSWMNWVKQRPGKGLEWIGRIYPGDGETIYNGKFRVKATLTADKSSSTAYMDISSLTSEDSAVYFCARGYDDYSFAYWGQGTLVTVSAGGGGSGGGGSGGGGSDIVMTQAAPSIPVTPGESVSISCRSSKSLLHSNGNTYLYWFLQRPGQSPQLLIYRMSNLASGVPDRFSGSGSGTAFTLRISRVEAEDVGVYYCMQHIEYPFTFGSGTKLEIKGGGGSGGGGSGGGGSQVQLQQSGPELVKPGASVKISCKASGYAFTNSWMNWVKQRPGKGLEWIGRIYPGDGETIYNGKFRVKATLTADKSSSTAYMDISSLTSEDSAVYFCARGYDDYSFAYWGQGTLVTVSAGGGGSGGGGSGGGGSDIVMTQAAPSIPVTPGESVSISCRSSKSLLHSNGNTYLYWFLQRPGQSPQLLIYRMSNLASGVPDRFSGSGSGTAFTLRISRVEAEDVGVYYCMQHIEYPFTFGSGTKLEIK | – | – | – | – | – | – | – | ~0.008 | ~0.02 | ~0.6
anti-human Mpl antibody VB22B sc(Fv)2 (scFv) QVQLQQSGPELVKPGASVKISCKASGYAFTNSWMNWVKQRPGKGLEWIGRIYPGDGETIYNGKFRVKATLTADKSSSTAYMDISSLTSEDSAVYFCARGYDDYSFAYWGQGTLVTVSAGGGGSGGGGSGGGGSDIVMTQAAPSIPVTPGESVSISCRSSKSLLHSNGNTYLYWFLQRPGQSPQLLIYRMSNLASGVPDRFSGSGSGTAFTLRISRVEAEDVGVYYCMQHIEYPFTFGSGTKLEIKGGGGSGGGGSGGGGSQVQLQQSGPELVKPGASVKISCKASGYAFTNSWMNWVKQRPGKGLEWIGRIYPGDGETIYNGKFRVKATLTADKSSSTAYMDISSLTSEDSAVYFCARGYDDYSFAYWGQGTLVTVSAGGGGSGGGGSGGGGSDIVMTQAAPSIPVTPGESVSISCRSSKSLLHSNGNTYLYWFLQRPGQSPQLLIYRMSNLASGVPDRFSGSGSGTAFTLRISRVEAEDVGVYYCMQHIEYPFTFGSGTKLEIK | – | – | – | – | – | – | – | ~0.01 | ~0.03 | –
